# Experimental data from US20200264182A1, “METHOD FOR DETECTING PROSTATE CANCER” (J-OIL MILLS, INC., priority 2017, published 2020).
# What was measured:
# [1] = FAC binding constant (Table 5 entry); details: Table 5: sugar chain having no fucose; at 25° C.
# Procedure: (§1) Details of the FAC method are described in Patent Document 2 filed by some of the present applicants, for example.
# (§2) Binding constants (at 25° C.) of PhoSL, SRL, NSL and LSL belonging to the fucose α1→6 specific lectin for various sugar chains are shown in Tables 2 to 5.
# FAC binding constant = details: at 25° C.
# Procedure: as §1, §2
# [2] = Binding to sugar chains, summary of Tables 2 to 5
# Procedure: as §1, §2
# The AAL and AOL bind to the fucose α1→6 sugar chains (sugar chains No. 015, 201 to 203, and 401 to 418), as well as to the glycolipid-type sugar chain excluding the fucose α1→6 (sugar chains No. 718, 722, 723, 727, 909, 910 and 933). The LCL and PSL bind to the fucose α1→6 sugar chain, as well as to sugar chain excluding the α1→6 fucose (sugar chains No. 003, and 005 to 014).
# Furthermore, the binding constant of the fucose α1→6 specific lectin is not decreased even if a sialic acid is added to the fucose α1→6 sugar chain (sugar chains No. 601 and 602). In addition, the fucose α1→6 specific lectin also strongly binds to the triple-strand (sugar chains No. 407 to 413) and the four-strand (sugar chains No. 418) of the fucose uα1→6 sugar chain.
# [3] = sugar chain having fucose other than α1→6 fucose
molecule,measurement,setting,value
"PSL: Pisum sativum lectin, affinity for fucose α1→6 but not specific (protein, UniProt P02867 31-217; P02867 218-275, looked up) Lectin beta chain: TETTSFLITKFSPDQQNLIFQGDGYTTKEKLTLTKAVKNTVGRALYSSPIHIWDRETGNVANFVTSFTFVINAPNSYNVADGFTFFIAPVDTKPQTGGGYLGVFNSAEYDKTTQTVAVEFDTFYNAAWDPSNRDRHIGIDVNSIKSVNTKSWKLQNGEEANVVIAFNAATNVLTVSLTYPNSLEEEN Lectin alpha chain: VTSYTLSDVVSLKDVVPEWVRIGFSATTGAEYAAHEVLSWSFHSELSGTSSSKQAADA",Binding constant for sugar chain No. 728,[1],<1000 M⁻¹
same,Binding constant for sugar chain No. 728,FAC binding constant; Table 3: sugar chain having fucose other than α1→6 fucose,<1000 M⁻¹
same,Binding constant for sugar chain No. 419,FAC binding constant; [3],<1000 M⁻¹
same,Binding constant for sugar chain No. 420,FAC binding constant; [3],<1000 M⁻¹
same,Binding constant for sugar chain No. 718,FAC binding constant; [3],<1000 M⁻¹
same,Binding constant for sugar chain No. 719,FAC binding constant; [3],<1000 M⁻¹
same,Binding constant for sugar chain No. 720,FAC binding constant; [3],<1000 M⁻¹
same,Binding constant for sugar chain No. 721,FAC binding constant; [3],<1000 M⁻¹
same,Binding constant for sugar chain No. 722,FAC binding constant; [3],<1000 M⁻¹
same,Binding constant for sugar chain No. 723,FAC binding constant; [3],<1000 M⁻¹
same,Binding constant for sugar chain No. 726,FAC binding constant; [3],<1000 M⁻¹
same,Binding constant for sugar chain No. 727,FAC binding constant; [3],<1000 M⁻¹
same,Binding constant for sugar chain No. 729,FAC binding constant; [3],<1000 M⁻¹
same,Binding constant for sugar chain No. 730,FAC binding constant; [3],<1000 M⁻¹
same,Binding constant for sugar chain No. 731,FAC binding constant; [3],<1000 M⁻¹
same,Binding constant for sugar chain No. 739,FAC binding constant; [3],<1000 M⁻¹
same,Binding constant for sugar chain No. 909,FAC binding constant; [3],<1000 M⁻¹
same,Binding constant for sugar chain No. 910,FAC binding constant; [3],<1000 M⁻¹
same,Binding constant for sugar chain No. 931,FAC binding constant; [3],<1000 M⁻¹
same,Binding constant for sugar chain No. 932,FAC binding constant; [3],<1000 M⁻¹
same,Binding constant for sugar chain No. 933,FAC binding constant; [3],<1000 M⁻¹
same,Binding constant for sugar chain No. 001,FAC binding constant; sugar chain having no fucose,<1000 M⁻¹
same,Binding constant for sugar chain No. 002,FAC binding constant; sugar chain having no fucose,<1000 M⁻¹
same,Binding constant for sugar chain No. 003,FAC binding constant; sugar chain having no fucose,7800 M⁻¹
same,Binding constant for sugar chain No. 004,FAC binding constant; sugar chain having no fucose,<1000 M⁻¹
same,Binding constant for sugar chain No. 005,FAC binding constant; sugar chain having no fucose,7400 M⁻¹
same,Binding constant for sugar chain No. 006,FAC binding constant; sugar chain having no fucose,7100 M⁻¹
same,Binding constant for sugar chain No. 007,FAC binding constant; sugar chain having no fucose,7800 M⁻¹
same,Binding constant for sugar chain No. 008,FAC binding constant; sugar chain having no fucose,10000 M⁻¹
same,Binding constant for sugar chain No. 009,FAC binding constant; sugar chain having no fucose,7900 M⁻¹
same,Binding constant for sugar chain No. 010,FAC binding constant; sugar chain having no fucose,<1000 M⁻¹
same,Binding constant for sugar chain No. 011,FAC binding constant; sugar chain having no fucose,<1000 M⁻¹
same,Binding constant for sugar chain No. 012,FAC binding constant; sugar chain having no fucose,17000 M⁻¹
same,Binding constant for sugar chain No. 013,FAC binding constant; sugar chain having no fucose,<1000 M⁻¹
same,Binding constant for sugar chain No. 014,FAC binding constant; sugar chain having no fucose,8600 M⁻¹
same,Binding constant for sugar chain No. 101,FAC binding constant; sugar chain having no fucose,<1000 M⁻¹
same,Binding constant for sugar chain No. 103,FAC binding constant; sugar chain having no fucose,<1000 M⁻¹
same,Binding constant for sugar chain No. 104,FAC binding constant; sugar chain having no fucose,<1000 M⁻¹
same,Binding constant for sugar chain No. 105,FAC binding constant; sugar chain having no fucose,<1000 M⁻¹
same,Binding constant for sugar chain No. 107,FAC binding constant; sugar chain having no fucose,<1000 M⁻¹
same,Binding constant for sugar chain No. 108,FAC binding constant; sugar chain having no fucose,<1000 M⁻¹
same,Binding constant for sugar chain No. 301,FAC binding constant; sugar chain having no fucose,<1000 M⁻¹
same,Binding constant for sugar chain No. 304,FAC binding constant; sugar chain having no fucose,<1000 M⁻¹
same,Binding constant for sugar chain No. 305,FAC binding constant; sugar chain having no fucose,<1000 M⁻¹
same,Binding constant for sugar chain No. 307,FAC binding constant; sugar chain having no fucose,2400 M⁻¹
same,Binding constant for sugar chain No. 308,FAC binding constant; sugar chain having no fucose,<1000 M⁻¹
same,Binding constant for sugar chain No. 313,FAC binding constant; sugar chain having no fucose,<1000 M⁻¹
same,Binding constant for sugar chain No. 314,FAC binding constant; sugar chain having no fucose,<1000 M⁻¹
same,Binding constant for sugar chain No. 323,FAC binding constant; sugar chain having no fucose,<1000 M⁻¹
same,Binding constant for sugar chain No. 501,FAC binding constant; sugar chain having no fucose,<1000 M⁻¹
same,Binding constant for sugar chain No. 502,FAC binding constant; sugar chain having no fucose,<1000 M⁻¹
same,Binding constant for sugar chain No. 503,FAC binding constant; sugar chain having no fucose,<1000 M⁻¹
same,Binding constant for sugar chain No. 504,FAC binding constant; sugar chain having no fucose,<1000 M⁻¹
same,Binding constant for sugar chain No. 701,FAC binding constant; sugar chain having no fucose,<1000 M⁻¹
same,Binding constant for sugar chain No. 702,FAC binding constant; sugar chain having no fucose,<1000 M⁻¹
same,Binding constant for sugar chain No. 703,FAC binding constant; sugar chain having no fucose,<1000 M⁻¹
same,Binding constant for sugar chain No. 704,FAC binding constant; sugar chain having no fucose,<1000 M⁻¹
same,Binding constant for sugar chain No. 705,FAC binding constant; sugar chain having no fucose,<1000 M⁻¹
same,Binding constant for sugar chain No. 706,FAC binding constant; sugar chain having no fucose,<1000 M⁻¹
same,Binding constant for sugar chain No. 707,FAC binding constant; sugar chain having no fucose,<1000 M⁻¹
same,Binding constant for sugar chain No. 708,FAC binding constant; sugar chain having no fucose,<1000 M⁻¹
same,Binding constant for sugar chain No. 709,FAC binding constant; sugar chain having no fucose,<1000 M⁻¹
same,Binding constant for sugar chain No. 710,FAC binding constant; sugar chain having no fucose,<1000 M⁻¹
same,Binding constant for sugar chain No. 711,FAC binding constant; sugar chain having no fucose,<1000 M⁻¹
same,Binding constant for sugar chain No. 712,FAC binding constant; sugar chain having no fucose,<1000 M⁻¹
same,Binding constant for sugar chain No. 713,FAC binding constant; sugar chain having no fucose,<1000 M⁻¹
same,Binding constant for sugar chain No. 715,FAC binding constant; sugar chain having no fucose,<1000 M⁻¹
same,Binding constant for sugar chain No. 716,FAC binding constant; sugar chain having no fucose,<1000 M⁻¹
same,Binding constant for sugar chain No. 717,FAC binding constant; sugar chain having no fucose,<1000 M⁻¹
same,Binding constant for sugar chain No. 724,FAC binding constant; sugar chain having no fucose,<1000 M⁻¹
same,Binding constant for sugar chain No. 725,FAC binding constant; sugar chain having no fucose,<1000 M⁻¹
same,Binding constant for sugar chain No. 732,FAC binding constant; sugar chain having no fucose,<1000 M⁻¹
same,Binding constant for sugar chain No. 733,FAC binding constant; sugar chain having no fucose,<1000 M⁻¹
same,Binding constant for sugar chain No. 734,FAC binding constant; sugar chain having no fucose,<1000 M⁻¹
same,Binding constant for sugar chain No. 735,FAC binding constant; sugar chain having no fucose,<1000 M⁻¹
same,Binding constant for sugar chain No. 736,FAC binding constant; sugar chain having no fucose,<1000 M⁻¹
same,Binding constant for sugar chain No. 737,FAC binding constant; sugar chain having no fucose,<1000 M⁻¹
same,Binding constant for sugar chain No. 738,FAC binding constant; sugar chain having no fucose,<1000 M⁻¹
same,Binding constant for sugar chain No. 901,FAC binding constant; sugar chain having no fucose,<1000 M⁻¹
same,Binding constant for sugar chain No. 902,FAC binding constant; sugar chain having no fucose,<1000 M⁻¹
same,Binding constant for sugar chain No. 903,FAC binding constant; sugar chain having no fucose,<1000 M⁻¹
same,Binding constant for sugar chain No. 905,FAC binding constant; sugar chain having no fucose,<1000 M⁻¹
same,Binding constant for sugar chain No. 906,FAC binding constant; sugar chain having no fucose,<1000 M⁻¹
same,Binding constant for sugar chain No. 907,FAC binding constant; sugar chain having no fucose,<1000 M⁻¹
same,Binding constant for sugar chain No. 015,FAC binding constant; sugar chain having α1→6 fucose,120000 M⁻¹
same,Binding constant for sugar chain No. 201,FAC binding constant; sugar chain having α1→6 fucose,100000 M⁻¹
same,Binding constant for sugar chain No. 202,FAC binding constant; sugar chain having α1→6 fucose,44000 M⁻¹
same,Binding constant for sugar chain No. 203,FAC binding constant; sugar chain having α1→6 fucose,25000 M⁻¹
same,Binding constant for sugar chain No. 401,FAC binding constant; sugar chain having α1→6 fucose,92000 M⁻¹
same,Binding constant for sugar chain No. 402,FAC binding constant; sugar chain having α1→6 fucose,48000 M⁻¹
same,Binding constant for sugar chain No. 403,FAC binding constant; sugar chain having α1→6 fucose,38000 M⁻¹
same,Binding constant for sugar chain No. 404,FAC binding constant; sugar chain having α1→6 fucose,45000 M⁻¹
same,Binding constant for sugar chain No. 405,FAC binding constant; sugar chain having α1→6 fucose,36000 M⁻¹
same,Binding constant for sugar chain No. 406,FAC binding constant; sugar chain having α1→6 fucose,13000 M⁻¹
same,Binding constant for sugar chain No. 407,FAC binding constant; sugar chain having α1→6 fucose,<1000 M⁻¹
same,Binding constant for sugar chain No. 410,FAC binding constant; sugar chain having α1→6 fucose,<1000 M⁻¹
same,Binding constant for sugar chain No. 413,FAC binding constant; sugar chain having α1→6 fucose,<1000 M⁻¹
same,Binding constant for sugar chain No. 418,FAC binding constant; sugar chain having α1→6 fucose,<1000 M⁻¹
same,Binding constant for sugar chain No. 601,FAC binding constant; sugar chain having α1→6 fucose,31000 M⁻¹
same,Binding constant for sugar chain No. 602,FAC binding constant; sugar chain having α1→6 fucose,29000 M⁻¹
same,binding to sugar chain excluding the α1→6 fucose (in words),"[2]; sugar chains No. 003, and 005 to 014 for LCL and PSL",bind
same,binding to the fucose α1→6 sugar chains (in words),"[2]; sugar chains No. 015, 201 to 203, and 401 to 418",bind
